Measured values published in patent US20030143208A1, “Oxidative stress-resistant cell lines and methods of use thereof” (priority 2002, published 2003).
“Also recorded” adds a separate entry of the source.

Tests used:
[1] = system: TH in cultured dopaminergic neurons; conditions: cultured dopaminergic neurons after MPP+ challenge; Pong et al. (22); cited from earlier work
[2] = molecular target: T1, tyrosine hydroxylase (TH) (Rattus norvegicus, UniProt P04177, Y423F); test: Tyrosine hydroxylase activity assay ([3H]H2O release from [3H]tyrosine) of wt- and mutant-TH, with and without peroxynitrite treatment; type: biochemical
T1 construct: E. coli expressing the full-length wt-TH, Y423F-TH, Y428F-TH, or Y432F-TH cDNAs; made in house; host or cells: BL21(DE3)pLysS E. coli
Description: (§1) To further confirm the site of nitration in vivo, the tyrosine residues 423, 428, and 432 were individually mutated to Phe. The Tyr423Phe, Tyr428Phe, and Tyr432Phe mutants were created with the QuikChange™ Site-Directed mutagenesis kit from Stratagene as previously described (25). Wild-type rat TH cDNA (GenBank accession no.: NM-012740) was subcloned into the mammalian pcDNA3.1+ expression vector (invitrogen) and used as the DNA template (25 ng) to create the mutants. Complete DNA sequencing data verified the presence of the appropriate mutation in the coding sequences of all recombinant proteins.
(§2) Recombinant wt- and mutant TH were isolated and purified from BL21(DE3)pLysS E. coli expressing the full-length wt-TH, Y423F-TH, Y428F-TH, or Y432F-TH cDNAs. Following isolation enzyme activity was assayed after treatment with peroxynitrite as previously described (25 and 26). Briefly, wt- or mutant-TH were exposed to several concentrations of peroxynitrite under identical conditions, in phosphate buffer 0.1 M containing DTPA 0.1 mM at pH 7.4. The activity of TH was assayed by the release of [^3H]H2O from [^3H]tyrosine in the presence of catalase. The specific activity of the partially purified Tyr423Phe mutant TH was 20% of the wild type TH. It is also shown that the enzyme activity of the wild type, and the Tyr428Phe and Tyr432Phe mutants were inhibited by exposure to nitrating and oxidizing concentrations of peroxynitrite (FIG. 3A). […] Enzymatic activity was assessed using a standard assay and the Lovenberg assay as described in (26) (FIGS. 3B and 3C).

[3] = system: tyrosine hydroxylase (TH); test: as above; type: biochemical, rat; conditions: nitrating and oxidizing concentrations of peroxynitrite, phosphate buffer 0.1 M, DTPA 0.1 mM, pH 7.4, FIG. 3A
Description: as §1, §2

[4] = molecular target: tyrosine hydroxylase (TH) (Rattus norvegicus, UniProt P04177); test: Nitration of TH by peroxynitrite in vitro; type: biochemical; conditions: recombinantly purified TH treated with peroxynitrite in vitro
From the text: Cysteine, methionine, tryptophan and tyrosine appear to be the principal amino acids in proteins modified by peroxynitrite in vitro (9-14). To resolve the apparent differences, the reaction of peroxynitrite with recombinantly purified rat TH in vitro was re-examined and no evidence of cysteine oxidation was found. Oxidation of one cysteine residue per molecule of TH was observed only at high peroxynitrite concentrations, and three cysteine residues were oxidized in partially unfolded protein.

T1 sequence (P04177 2-498 Y423F): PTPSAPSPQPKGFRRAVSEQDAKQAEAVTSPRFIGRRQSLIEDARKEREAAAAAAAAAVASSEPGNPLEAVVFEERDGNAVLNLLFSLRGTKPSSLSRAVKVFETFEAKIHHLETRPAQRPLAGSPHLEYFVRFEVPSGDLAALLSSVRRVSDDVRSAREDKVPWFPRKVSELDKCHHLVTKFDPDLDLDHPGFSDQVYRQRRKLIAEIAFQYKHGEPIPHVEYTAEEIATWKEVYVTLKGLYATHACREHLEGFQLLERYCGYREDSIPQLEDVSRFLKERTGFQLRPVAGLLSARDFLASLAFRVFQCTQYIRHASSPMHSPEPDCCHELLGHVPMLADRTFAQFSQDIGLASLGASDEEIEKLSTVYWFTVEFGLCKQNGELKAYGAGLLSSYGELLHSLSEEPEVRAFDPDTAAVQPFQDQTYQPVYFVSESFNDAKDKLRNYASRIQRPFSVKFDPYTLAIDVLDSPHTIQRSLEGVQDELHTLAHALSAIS
Sequence of tyrosine hydroxylase (TH) (Rattus norvegicus, UniProt P04177) (P04177 whole entry): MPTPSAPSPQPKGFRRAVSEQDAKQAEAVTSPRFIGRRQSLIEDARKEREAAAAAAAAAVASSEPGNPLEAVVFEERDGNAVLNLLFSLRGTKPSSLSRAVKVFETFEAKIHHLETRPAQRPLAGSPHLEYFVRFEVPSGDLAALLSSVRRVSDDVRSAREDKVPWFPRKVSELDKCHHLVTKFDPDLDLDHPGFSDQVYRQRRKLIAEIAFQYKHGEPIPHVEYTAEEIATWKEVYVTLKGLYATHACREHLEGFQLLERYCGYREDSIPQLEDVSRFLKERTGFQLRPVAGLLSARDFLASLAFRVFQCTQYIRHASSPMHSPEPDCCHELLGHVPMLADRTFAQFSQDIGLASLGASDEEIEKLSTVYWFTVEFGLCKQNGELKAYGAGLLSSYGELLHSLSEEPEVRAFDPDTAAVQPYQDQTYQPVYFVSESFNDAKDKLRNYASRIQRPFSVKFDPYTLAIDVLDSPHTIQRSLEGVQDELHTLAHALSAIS

Compound: COc1cccc(C=NCCN=Cc2cccc(OC)c2[O-])c1[O-].[Cl-].[Mn+3] [EUK134]
- nitration of TH [1]: prevented nitration of TH

Compound: Tyr423Phe mutant TH: rat tyrosine hydroxylase in which Tyr423 was substituted with Phe
- resistance to inactivation by different concentrations of peroxynitrite compared to wild type TH, Lovenberg assay ([2]; cell lysates, Lovenberg assay, FIG. 3C): resist inactivation
- resistance to inactivation by different concentrations of peroxynitrite compared to wild type TH ([2]; cell lysates, standard assay, FIG. 3B): resist inactivation
- specific activity relative to wild type TH ([2]; partially purified protein, % of the wild type TH): 20%
- TH enzymatic activity after exposure to peroxynitrite ([3]; listed as Tyr423 Phe mutant): no significant loss of enzymatic activity
- TH enzymatic activity after exposure to peroxynitrite ([3]; listed as Tyr423Phe mutant): no loss in TH enzymatic activity; also recorded: unaffected
- nitration by peroxynitrite [4]: lack of nitration

Compound: Tyr428Phe: rat tyrosine hydroxylase mutant with tyrosine residue 428 mutated to Phe
- TH enzymatic activity after exposure to peroxynitrite [3]: inhibited

Compound: Tyr432Phe: rat tyrosine hydroxylase mutant with tyrosine residue 432 mutated to Phe
- TH enzymatic activity after exposure to peroxynitrite [3]: inhibited

Compound: wild type: recombinant wild-type rat tyrosine hydroxylase (GenBank accession no. NM-012740) [reference compound]
- TH enzymatic activity after exposure to peroxynitrite [3]: inhibited
